# T1: CD73 (Homo sapiens, UniProt P21589)
# T1 sequence (P21589 27-549): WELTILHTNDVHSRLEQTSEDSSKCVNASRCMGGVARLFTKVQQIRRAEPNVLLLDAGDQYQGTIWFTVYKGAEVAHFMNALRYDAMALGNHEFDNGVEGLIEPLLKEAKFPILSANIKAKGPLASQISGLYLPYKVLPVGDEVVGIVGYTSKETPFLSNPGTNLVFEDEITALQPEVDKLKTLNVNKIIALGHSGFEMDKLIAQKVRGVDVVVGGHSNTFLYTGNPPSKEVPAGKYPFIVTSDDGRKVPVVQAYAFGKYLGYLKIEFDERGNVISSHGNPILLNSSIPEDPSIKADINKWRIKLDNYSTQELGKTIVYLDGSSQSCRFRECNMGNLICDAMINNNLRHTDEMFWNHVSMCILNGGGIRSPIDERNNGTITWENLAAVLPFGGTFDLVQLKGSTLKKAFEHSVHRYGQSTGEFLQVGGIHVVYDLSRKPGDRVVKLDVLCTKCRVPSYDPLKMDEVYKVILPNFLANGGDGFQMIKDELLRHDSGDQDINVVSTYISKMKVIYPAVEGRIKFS
# T2: CD73 on NCI-H292 cells (Homo sapiens, UniProt P21589)
# T2 construct: endogenous in cells; host or cells: NCI-H292
# T2 sequence (P21589 27-549): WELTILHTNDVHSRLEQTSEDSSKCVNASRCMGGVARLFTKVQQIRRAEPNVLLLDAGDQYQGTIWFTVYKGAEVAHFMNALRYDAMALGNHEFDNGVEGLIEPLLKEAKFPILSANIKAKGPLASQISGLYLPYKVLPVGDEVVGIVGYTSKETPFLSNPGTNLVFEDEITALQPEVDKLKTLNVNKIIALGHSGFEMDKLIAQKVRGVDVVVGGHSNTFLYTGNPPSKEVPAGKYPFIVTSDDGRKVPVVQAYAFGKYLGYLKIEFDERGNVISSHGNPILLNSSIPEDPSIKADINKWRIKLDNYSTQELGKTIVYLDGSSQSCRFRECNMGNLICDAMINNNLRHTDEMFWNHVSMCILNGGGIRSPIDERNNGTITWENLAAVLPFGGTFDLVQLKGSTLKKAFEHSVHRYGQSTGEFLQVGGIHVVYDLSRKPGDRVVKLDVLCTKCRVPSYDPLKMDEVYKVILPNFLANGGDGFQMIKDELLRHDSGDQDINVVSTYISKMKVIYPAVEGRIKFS
# How the values were obtained:
# [1] = system: human FcγRs; assay: SPR binding profile to human FcγRs (panel)
# Procedure: Binding of the constructs to human FcγRs was measured via SPR. hCD64 and hCD32a-H131 binding data for IgG1.1 and IgG2 molecules were consistent with expected values for the different Fcs. IgG1.1f is the most inert Fc.
# The binding of antibodies to Fc gamma receptors (FcγRs or FcgRs) was studied using biosensor technologies including Biacore surface plasmon resonance (SPR) and Fortebio Biolayer Interferometry (BLI). SPR studies were performed on a Biacore T100 instrument (GE Healthcare) at 25° C. The Fab fragment from a murine anti-6×His antibody was immobilized on a CM5 sensor chip using EDC/NHS to a density of ˜3000 RU. Various his-tagged FcgRs (7 ug/ml) were captured via the C-terminal his-tag using a contact time of 30 s at 10 ul/min, and the binding of 1.0 μM antibody was evaluated in a running buffer of 10 mM NaPO4, 130 mM NaCl, 0.05% p20 (PBS-T) pH 7.1. FcgRs used for these experiments included CD64 (FcgRI), CD32a-H131 (FcgRIIa-H131), CD32a-R131 (FcgRIIa-R131), CD32b (FcgRIIb), CD16a-V158 (FcgRIIIa-V158), CD16b-NA1 (FcgRIIIb-NA1), and CD16B-NA2 (FcgRIIIb-NA2). BLI experiments were performed on a Fortebio Octet RED instrument (Pall, Fortebio) at 25° C. in 10 mM NaPO4, 130 mM NaCl, 0.05% p20 (PBS-T) pH 7.1. Antibodies were captured out of undiluted expression supernatants on protein A coated sensors, followed by the binding of 1 μM hCD32a-H131, hCD32a-R131, hCD32b, hCD16a-V158, or 0.1 μM hCD64 analytes.
# This engineering strategy was further explored by producing other antibodies formatted with IgG2.3G1-AY, IgG2.3G1-AY-S267E (IgG2.3G1-AY-V27), as well as IgG2-B-form variants (IgG2.5G1-AY and IgG2.5G1-AY-V27), and other hybrid antibodies containing different combinations of IgG1 and IgG2 constant domains, and testing the binding of these antibodies to anti-his Fab captured his-tagged FcgRs using Biacore SPR technology.
# [2] = molecular target: T1, CD73; assay: CD73 internalization at 1, 4 or 21 hours by CD73.4 with heavy chain constant region variants (FIG. 31); format: cell-based; set-up: endogenous in cells; conditions: CD73.4 variable regions with the named constant region
# Procedure: The bars for each antibody are shown in the order of 21 hours (on the left), 4 hours (middle) and 1 hour (right).
# Anti-CD73 antibodies (CD73.4) with the heavy chain constant regions shown in Table 31 were prepared and tested as described above in antibody mediated CD73 internalization assays.
# [3] = molecular target: T2, CD73 on NCI-H292 cells; assay: Flow cytometry based cross-blocking on NCI-H292 cells; format: binding; conditions: FITC-labeled 11F11, NCI-H292 cells
# Procedure: The antibodies were also subjected to flow cytometry based cross-blocking. The experiment was conducted as follows using one set of labeled fluorescently labeled antibody and a second set of unlabeled antibody: 100000 NCI-H292 cells were seeded per well. The plate was spun down and the cells were resuspended in 100 uL 2% FBS in PBS per well. The cells were blocked on ice for 20 min. Unlabeled antibody, as indicated, in 2% FBS in PBS was added to each well. […] 6 wells of cells were incubated without antibody, and were resuspended in 100 uL 2% FBS in PBS only (for controls). The cells were then incubated on ice for 30 min. The cells were washed twice with 2% FBS in PBS and the samples were resuspended in 140 uL 2% FBS in PBS, and analyzed on a FacsCalibur flow cytometer (Becton Dickinson).
# [4] = SEC-MALS oligomeric state of CD73 mAbs; format: physicochemical
# Procedure: The oligomeric state of CD73 mAbs were examined by size-exclusion chromatography coupled to an in-line multi-angle light scattering detector (SEC-MALS). Isocratic separations were performed on a Shodex PROTEIN KW-803 column connected to an Prominence Shimadzu UFLC in buffer containing 200 mM K2HPO4, 150 mM NaCl, pH 6.8, containing 0.02% Na azide (0.1 μm filtered) running at 0.5 mL/min. Samples were injected onto the column using a SIL-20AC Prominence Shimadzu autosampler, and data were obtained from three online detectors connected in series: a Prominence SPD-20AD diode array UV/vis spectrophotometer followed by a Wyatt miniDAWN™ TREOS Multi-Angle Light Scattering Detector then a Wyatt Optilab T-rEX Refractive Index Detector. Data (as shown in Table 15 below) were collected and analyzed using Astra (Wyatt) and Labsolutions (Shimadzu) software.
molecule,measurement,setting,value
"IgG2.5plusTHT: modified IgG2.5 constant region construct (protein, Synthetic: IgG2.5-plusTHT, modified IgG2.5 constant region construct) ASTKGPSVFPLAPSSRSTSESTAALGCLVKDYFPEPVTVSWNSGALTSGVHTFPAVLQSSGLYSLSSVVTVPSSNFGTQTYTCNVDHKPSNTKVDKTVERKCCVETHTCPPCPAPPVAGPSVFLFPPKPKDTLMISRTPEVTCVVVDVSHEDPEVQFNWYVDGVEVHNAKTKPREEQFNSTFRVVSVLTVVHQDWLNGKEYKCKVSNKGLPAPIEKTISKTKGQPREPQVYTLPPSREEMTKNQVSLTCLVKGFYPSDIAVEWESNGQPENNYKTTPPMLDSDGSFFLYSKLTVDKSRWQQGNVFSCSVMHEALHNHYTQKSLSLSPGK",FcgR binding properties by SPR (in words),[1],unable to retain IgG1f-like FcgR binding properties
"IgG2.3/4: CD73.4 with IgG2 constant region with C219S/C220S (protein, Synthetic: IgG2.3/4, CD73.4 with IgG2 constant region with C219S/C220S) ASTKGPSVFPLAPCSRSTSESTAALGCLVKDYFPEPVTVSWNSGALTSGVHTFPAVLQSSGLYSLSSVVTVPSSNFGTQTYTCNVDHKPSNTKVDKTVERKSSVECPPCPAPPVAGPSVFLFPPKPKDTLMISRTPEVTCVVVDVSHEDPEVQFNWYVDGVEVHNAKTKPREEQFNSTFRVVSVLTVVHQDWLNGKEYKCKVSNKGLPAPIEKTISKTKGQPREPQVYTLPPSREEMTKNQVSLTCLVKGFYPSDIAVEWESNGQPENNYKTTPPMLDSDGSFFLYSKLTVDKSRWQQGNVFSCSVMHEALHNHYTQKSLSLSPGK",antibody mediated CD73 internalization (in words),[2],much reduced internalization compared to IgG2.3 or IgG2.4 alone
"IgG2.3G1-AY-V27: IgG2.3G1-AY constant region with S267E (protein, Synthetic: IgG2.3G1-AY-V27, IgG2.3G1-AY constant region with S267E) ASTKGPSVFPLAPCSRSTSESTAALGCLVKDYFPEPVTVSWNSGALTSGVHTFPAVLQSSGLYSLSSVVTVPSSNFGTQTYTCNVDHKPSNTKVDKTVERKSCVECPPCPAPELLGGPSVFLFPPKPKDTLMISRTPEVTCVVVDVEHEDPEVKFNWYVDGVEVHNAKTKPREEQYNSTYRVVSVLTVLHQDWLNGKEYKCKVSNKALPAPIEKTISKAKGQPREPQVYTLPPSREEMTKNQVSLTCLVKGFYPSDIAVEWESNGQPENNYKTTPPVLDSDGSFFLYSKLTVDKSRWQQGNVFSCSVMHEALHNHYTQKSLSLSPGK",FcgR binding properties by SPR (in words),[1],"comparable FcgR binding properties to IgG1f and IgG1f-S267E, respectively"
"7A11: human anti-CD73 monoclonal antibody, IgG1za; VH SEQ ID NO: 88, VL SEQ ID NO: 92 (antibody, V domains shown, Synthetic: 7A11 VH; Synthetic: 7A11 VK1) VH: EVQLVESGGGLVQTGRSLRLSCAASGFTFDDYAMHWVRQAPGKGLEWVSDISWNSDIIGYADSVKGRFTISRDNAKNSLYLQMNSLRAEDTALYYCAKDIYGSGSSFFDYWGQGILVTVSS VL: DIQMTQSPSSLSASVGDRVTITCRASQYISSWLAWYQQKPEKAPKSLIYAASSLQSGVPSRFSGSGSGTDFTLTISSLQPEDFATYYCQQYHSYPPTFGQGTRLEIK",competition with 11F11 (cross-blocking),[3],competes with 11F11
same,SEC % HMW,[4],0.5%
same,SEC % LMW,[4],0.5%
same,SEC % Monomer,[4],98.5%

# — patent US10100129B2, “Antibodies against CD73 and uses thereof” (BRISTOL-MYERS SQUIBB COMPANY, priority 2014, dated 2018)
